For test [1], the target named is T1, YFP-BmOR3 (Bombyx mori, UniProt Q5FBE0 1-439).
T1 construct: BmOR3, pheromone (bombykal) receptor of Bombyx mori; also called N-terminal YFP-tagged BmOR3; YFP-WT-BmOR3; source: HEK293, transfected, in living cells; not shown: YFP, N-terminal, kept
T1 sequence (looked up): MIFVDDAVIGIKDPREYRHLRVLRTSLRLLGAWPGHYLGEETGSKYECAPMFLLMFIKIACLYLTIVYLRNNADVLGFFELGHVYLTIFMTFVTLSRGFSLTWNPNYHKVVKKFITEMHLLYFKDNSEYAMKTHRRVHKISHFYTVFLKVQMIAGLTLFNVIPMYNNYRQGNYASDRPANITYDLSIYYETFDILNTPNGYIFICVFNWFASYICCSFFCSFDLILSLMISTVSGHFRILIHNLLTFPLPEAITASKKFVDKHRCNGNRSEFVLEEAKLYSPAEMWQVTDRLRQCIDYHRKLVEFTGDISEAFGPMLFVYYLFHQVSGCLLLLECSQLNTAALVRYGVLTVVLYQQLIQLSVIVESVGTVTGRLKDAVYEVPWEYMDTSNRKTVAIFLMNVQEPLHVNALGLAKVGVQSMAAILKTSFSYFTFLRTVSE
The experiment in a line: intermolecular BRET. As to conditions: bombykal-induced, read off a plot.

The target of a further test is Rluc-BmOrco. Briefly: intermolecular BRET. As to conditions: bombykal-induced, read off a plot.
Another test addresses Rluc-BmArr. Briefly: intermolecular BRET. As to conditions: read off a plot.
The target of test [2] is T1, YFP-BmOR3. Briefly: FRET or BRET; arrestin recruitment BRET in living HEK293 cells; YFP-BmOR3 (WT or mutant) with Rluc-fused arrestin; bombykal for 10 min; pertussis toxin without effect; enhanced by BmOrco coexpression.
Test [3] addresses Rluc-BmOrco (Bombyx mori).
For test [4], the target named is T1, YFP-BmOR3. Briefly: FRET or BRET; G protein recruitment BRET in living HEK293 cells; YFP-BmOR3 with Gi-Rluc; increasing bombykal for 2 min; net BRET after subtracting cells with Gi-Rluc only; net BRET also without bombykal; BmOrco coexpression without significant effect. As to conditions: partners not purified.
[5] abbreviates: HEK293 cells, parent: est. 0.027.
Where [6] appears, read: HEK293 cells, parent: est. 0.053.
Where [7] appears, read: HEK293 cells, bombykal, parent: est. 0.612.
[8] abbreviates: HEK293 cells, vehicle, parent: est. 0.592.

Like-named read-outs stand apart in the source and are kept apart here.

As for Rluc-BmOrco Y464A; V467A; L468A; L471A, the response in the test with YFP-BmOR3 [1] (setting [5]) is -0.006 ΔBRET; with YFP-BmOR3 [1] (parent: est. 0.015), -0.005 ΔBRET.

For “YFP-BmOR3 (from UniProt Q5FBE0) R391E; K392E”, the response with Rluc-BmOrco (setting [6]) was 0.041 ΔBRET.

Consider YFP-BmOR3 (from UniProt Q5FBE0) W103A, for which the response stood at 0.605 BRET Ratio in the test with Rluc-BmArr (setting [7]) and 0.594 BRET Ratio in the test with Rluc-BmArr (setting [8]).

Take Rluc-BmArr (natural protein): in the test with YFP-BmOR3 [2], the EC50 of bombykal for the BRET increase (quantity not given) was found to be 90 nM.

For the molecule YFP-BmOR3 (from UniProt Q5FBE0) T25A, the response with Rluc-BmArr (bombykal-stimulated, parent: est. 0.012) was 0.0082 ΔBRET.

As to YFP-BmOR3 (from UniProt Q5FBE0) E403K, the response with Rluc-BmOrco (parent: est. 0.038) was 0 ΔBRET.

Consider YFP-BmOR3 (from UniProt Q5FBE0) W33A, for which the response with Rluc-BmArr (setting [7]) came to 0.605 BRET Ratio; with Rluc-BmArr (setting [8]) it was 0.595 BRET Ratio.

Consider “YFP-BmOR3 (from UniProt Q5FBE0) F428A; F433A”, for which the response in the test with Rluc-BmOrco (setting [6]) and with Rluc-BmOrco (parent: est. 0.015) was 0.003 ΔBRET each time.

With Rluc-BmOrco K437E, the response is 0.005 ΔBRET with YFP-BmOR3 [1] (setting [5]) and 0 ΔBRET with YFP-BmOR3 [1] (parent: est. 0.038).

The molecule “YFP-BmOR3 (from UniProt Q5FBE0 1-439) (receptor)” registered a bombykal (1 μM)-stimulated Ca2+ response (CalfluxVTN BRET sensor) in HEK293 cells coexpressing BmOR3 and BmOrco, relative to angiotensin II through AT1R (% of the AT1R response) in test [3] of 70.

B1: Gi2-Rluc (natural protein, UniProt P04899 1-355, looked up)
chain: MGCTVSAEDKAAAERSKMIDKNLREDGEKAAREVKLLLLGAGESGKSTIVKQMKIIHEDGYSEEECRQYRAVVYSNTIQSIMAIVKAMGNLQIDFADPSRADDARQLFALSCTAEEQGVLPDDLSGVIRRLWADHGVQACFGRSREYQLNDSAAYYLNDLERIAQSDYIPTQQDVLRTRVKTTGIVETHFTFKDLHFKMFDVGGQRSERKKWIHCFEGVTAIIFCVALSAYDLVLAEDEEMNRMHESMKLFDSICNNKWFTDTSIILFLNKKDLFEEKITHSPLTICFPEYTGANKYDEAASYIQSKFEDLNKRKDTKEIYTHFTCATDTKNVQFVFDAVTDVIIKNNLKDCGLF
notes: G protein alpha subunit Gi2 (Gαi2); also called Gαi-Rluc; Rluc-tagged Gi protein; source: HEK293, transfected, in living cells
As to B1, in the test with YFP-BmOR3 [4], the “EC50 of bombykal for the BRET increase” value was determined as 22 ± 3.22 nM.

B2: N-terminal Rluc-fused β-arrestin-1 (natural protein, UniProt P49407 1-418, looked up)
chain: MGDKGTRVFKKASPNGKLTVYLGKRDFVDHIDLVDPVDGVVLVDPEYLKERRVYVTLTCAFRYGREDLDVLGLTFRKDLFVANVQSFPPAPEDKKPLTRLQERLIKKLGEHAYPFTFEIPPNLPCSVTLQPGPEDTGKACGVDYEVKAFCAENLEEKIHKRNSVRLVIRKVQYAPERPGPQPTAETTRQFLMSDKPLHLEASLDKEIYYHGEPISVNVHVTNNTNKTVKKIKISVRQYADICLFNTAQYKCPVAMEEADDTVAPSSTFCKVYTLTPFLANNREKRGLALDGKLKHEDTNLASSTLLREGANREILGIIVSYKVKVKLVVSRGGLLGDLASSDVAVELPFTLMHPKPKEEPPHREVPENETPVDTNLIELDTNDDDIVFEDFARQRLKGMKDDKEEEEDGTGSPQLNNR
notes: β-arrestin-1; also called βarr1; source: HEK293, transfected, in living cells; not shown: Rluc, N-terminal, kept
B2: the “EC50 of bombykal for the BRET increase (quantity not given)” value with YFP-BmOR3 [2] (partners not purified) is 91.1 ± 1.61 nM.

B3: Gi3-Rluc (natural protein, UniProt P08754 1-354, looked up)
chain: MGCTLSAEDKAAVERSKMIDRNLREDGEKAAKEVKLLLLGAGESGKSTIVKQMKIIHEDGYSEDECKQYKVVVYSNTIQSIIAIIRAMGRLKIDFGEAARADDARQLFVLAGSAEEGVMTPELAGVIKRLWRDGGVQACFSRSREYQLNDSASYYLNDLDRISQSNYIPTQQDVLRTRVKTTGIVETHFTFKDLYFKMFDVGGQRSERKKWIHCFEGVTAIIFCVALSDYDLVLAEDEEMNRMHESMKLFDSICNNKWFTETSIILFLNKKDLFEEKIKRSPLTICYPEYTGSNTYEEAAAYIQCQFEDLNRRKDTKEIYTHFTCATDTKNVQFVFDAVTDVIIKNNLKECGLY
notes: G protein alpha subunit Gi3 (Gαi3); also called Gαi-Rluc; Rluc-tagged Gi protein; source: HEK293, transfected, in living cells
With B3, the “EC50 of bombykal for the BRET increase” value with YFP-BmOR3 [4] came to 10.6 ± 2.06 nM.

The values are drawn from publication PMC8477192, “An ionic lock and a hydrophobic zipper mediate the coupling between an insect pheromone receptor BmOR3 and downstream effectors” (The Journal of Biological Chemistry, 2021).
